Results on 6 molecules are retold here after patent US20140213513A1 (Sanofi, priority 2012, published 2014).

T1: human GIP receptor (human, UniProt P48546 22-466)
T1 sequence (looked up): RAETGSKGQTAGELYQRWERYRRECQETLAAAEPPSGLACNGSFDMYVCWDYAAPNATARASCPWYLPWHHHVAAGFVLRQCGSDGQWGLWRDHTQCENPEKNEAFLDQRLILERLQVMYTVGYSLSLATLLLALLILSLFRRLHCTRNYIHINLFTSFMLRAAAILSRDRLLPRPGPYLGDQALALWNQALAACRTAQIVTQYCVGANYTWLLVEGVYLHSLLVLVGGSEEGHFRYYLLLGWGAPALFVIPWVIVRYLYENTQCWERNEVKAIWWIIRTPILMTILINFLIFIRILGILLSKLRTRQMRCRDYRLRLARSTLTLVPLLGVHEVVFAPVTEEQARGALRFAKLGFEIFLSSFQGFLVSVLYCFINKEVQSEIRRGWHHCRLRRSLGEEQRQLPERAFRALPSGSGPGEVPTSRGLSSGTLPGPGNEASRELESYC

B1: exendin-4 peptide analogue SEQ ID NO: 27 (peptide)
peptide: Y[Aib]QGTFTSDLSIQK([γGlu-Palmitoyl])DKRAA[Aib]LFIEWLKAGGPSSGAPPPS-NH2
modifications: N-terminus assumed
SMILES: CCCCCCCCCCCCCCCC(=O)N[C@@H](CCC(=O)NCCCC[C@H](NC(=O)[C@H](CCC(N)=O)NC(=O)[C@@H](NC(=O)[C@H](CO)NC(=O)[C@H](CC(C)C)NC(=O)[C@H](CC(=O)O)NC(=O)[C@H](CO)NC(=O)[C@@H](NC(=O)[C@H](Cc1ccccc1)NC(=O)[C@@H](NC(=O)CNC(=O)[C@H](CCC(N)=O)NC(=O)C(C)(C)NC(=O)[C@@H](N)Cc1ccc(O)cc1)[C@@H](C)O)[C@@H](C)O)[C@@H](C)CC)C(=O)N[C@@H](CC(=O)O)C(=O)N[C@@H](CCCCN)C(=O)N[C@@H](CCCNC(=N)N)C(=O)N[C@@H](C)C(=O)N[C@@H](C)C(=O)NC(C)(C)C(=O)N[C@@H](CC(C)C)C(=O)N[C@@H](Cc1ccccc1)C(=O)N[C@H](C(=O)N[C@@H](CCC(=O)O)C(=O)N[C@@H](Cc1c[nH]c2ccccc12)C(=O)N[C@@H](CC(C)C)C(=O)N[C@@H](CCCCN)C(=O)N[C@@H](C)C(=O)NCC(=O)NCC(=O)N1CCC[C@H]1C(=O)N[C@@H](CO)C(=O)N[C@@H](CO)C(=O)NCC(=O)N[C@@H](C)C(=O)N1CCC[C@H]1C(=O)N1CCC[C@H]1C(=O)N1CCC[C@H]1C(=O)N[C@@H](CO)C(N)=O)[C@@H](C)CC)C(=O)O
B2: exendin-4 peptide analogue SEQ ID NO: 24 (peptide)
peptide: Y[Aib]QGTFTSDLSIQK([γGlu-Palmitoyl])EKRAV[Aib]LFIEWLKAGGPSSGAPPPS-NH2
modifications: N-terminus assumed
SMILES: CCCCCCCCCCCCCCCC(=O)N[C@@H](CCC(=O)NCCCC[C@H](NC(=O)[C@H](CCC(N)=O)NC(=O)[C@@H](NC(=O)[C@H](CO)NC(=O)[C@H](CC(C)C)NC(=O)[C@H](CC(=O)O)NC(=O)[C@H](CO)NC(=O)[C@@H](NC(=O)[C@H](Cc1ccccc1)NC(=O)[C@@H](NC(=O)CNC(=O)[C@H](CCC(N)=O)NC(=O)C(C)(C)NC(=O)[C@@H](N)Cc1ccc(O)cc1)[C@@H](C)O)[C@@H](C)O)[C@@H](C)CC)C(=O)N[C@@H](CCC(=O)O)C(=O)N[C@@H](CCCCN)C(=O)N[C@@H](CCCNC(=N)N)C(=O)N[C@@H](C)C(=O)N[C@H](C(=O)NC(C)(C)C(=O)N[C@@H](CC(C)C)C(=O)N[C@@H](Cc1ccccc1)C(=O)N[C@H](C(=O)N[C@@H](CCC(=O)O)C(=O)N[C@@H](Cc1c[nH]c2ccccc12)C(=O)N[C@@H](CC(C)C)C(=O)N[C@@H](CCCCN)C(=O)N[C@@H](C)C(=O)NCC(=O)NCC(=O)N1CCC[C@H]1C(=O)N[C@@H](CO)C(=O)N[C@@H](CO)C(=O)NCC(=O)N[C@@H](C)C(=O)N1CCC[C@H]1C(=O)N1CCC[C@H]1C(=O)N1CCC[C@H]1C(=O)N[C@@H](CO)C(N)=O)[C@@H](C)CC)C(C)C)C(=O)O
B3: exendin-4 peptide analogue SEQ ID NO: 23 (peptide)
peptide: Y[Aib]QGTFTSDLSIQK([γGlu-Palmitoyl])EKRAA[Aib]YFIEWLKNTGPSSGAPPPS-NH2
modifications: N-terminus assumed
SMILES: CCCCCCCCCCCCCCCC(=O)N[C@@H](CCC(=O)NCCCC[C@H](NC(=O)[C@H](CCC(N)=O)NC(=O)[C@@H](NC(=O)[C@H](CO)NC(=O)[C@H](CC(C)C)NC(=O)[C@H](CC(=O)O)NC(=O)[C@H](CO)NC(=O)[C@@H](NC(=O)[C@H](Cc1ccccc1)NC(=O)[C@@H](NC(=O)CNC(=O)[C@H](CCC(N)=O)NC(=O)C(C)(C)NC(=O)[C@@H](N)Cc1ccc(O)cc1)[C@@H](C)O)[C@@H](C)O)[C@@H](C)CC)C(=O)N[C@@H](CCC(=O)O)C(=O)N[C@@H](CCCCN)C(=O)N[C@@H](CCCNC(=N)N)C(=O)N[C@@H](C)C(=O)N[C@@H](C)C(=O)NC(C)(C)C(=O)N[C@@H](Cc1ccc(O)cc1)C(=O)N[C@@H](Cc1ccccc1)C(=O)N[C@H](C(=O)N[C@@H](CCC(=O)O)C(=O)N[C@@H](Cc1c[nH]c2ccccc12)C(=O)N[C@@H](CC(C)C)C(=O)N[C@@H](CCCCN)C(=O)N[C@@H](CC(N)=O)C(=O)N[C@H](C(=O)NCC(=O)N1CCC[C@H]1C(=O)N[C@@H](CO)C(=O)N[C@@H](CO)C(=O)NCC(=O)N[C@@H](C)C(=O)N1CCC[C@H]1C(=O)N1CCC[C@H]1C(=O)N1CCC[C@H]1C(=O)N[C@@H](CO)C(N)=O)[C@@H](C)O)[C@@H](C)CC)C(=O)O
B4: exendin-4 peptide analogue SEQ ID NO: 26 (peptide)
peptide: Y[Aib]QGTFTSDLSIQK([γGlu-Palmitoyl])EKRAV[Aib]EFIEWLKAGGPSSGAPPPS-NH2
modifications: N-terminus assumed
SMILES: CCCCCCCCCCCCCCCC(=O)N[C@@H](CCC(=O)NCCCC[C@H](NC(=O)[C@H](CCC(N)=O)NC(=O)[C@@H](NC(=O)[C@H](CO)NC(=O)[C@H](CC(C)C)NC(=O)[C@H](CC(=O)O)NC(=O)[C@H](CO)NC(=O)[C@@H](NC(=O)[C@H](Cc1ccccc1)NC(=O)[C@@H](NC(=O)CNC(=O)[C@H](CCC(N)=O)NC(=O)C(C)(C)NC(=O)[C@@H](N)Cc1ccc(O)cc1)[C@@H](C)O)[C@@H](C)O)[C@@H](C)CC)C(=O)N[C@@H](CCC(=O)O)C(=O)N[C@@H](CCCCN)C(=O)N[C@@H](CCCNC(=N)N)C(=O)N[C@@H](C)C(=O)N[C@H](C(=O)NC(C)(C)C(=O)N[C@@H](CCC(=O)O)C(=O)N[C@@H](Cc1ccccc1)C(=O)N[C@H](C(=O)N[C@@H](CCC(=O)O)C(=O)N[C@@H](Cc1c[nH]c2ccccc12)C(=O)N[C@@H](CC(C)C)C(=O)N[C@@H](CCCCN)C(=O)N[C@@H](C)C(=O)NCC(=O)NCC(=O)N1CCC[C@H]1C(=O)N[C@@H](CO)C(=O)N[C@@H](CO)C(=O)NCC(=O)N[C@@H](C)C(=O)N1CCC[C@H]1C(=O)N1CCC[C@H]1C(=O)N1CCC[C@H]1C(=O)N[C@@H](CO)C(N)=O)[C@@H](C)CC)C(C)C)C(=O)O
B5: exendin-4 peptide analogue SEQ ID NO: 25 (peptide)
peptide: Y[Aib]QGTFTSDLSIQK(Palmitoyl)EKRAV[Aib]LFIEWLKAGGPSSGAPPPS-NH2
modifications: N-terminus assumed
SMILES: CCCCCCCCCCCCCCCC(=O)NCCCC[C@H](NC(=O)[C@H](CCC(N)=O)NC(=O)[C@@H](NC(=O)[C@H](CO)NC(=O)[C@H](CC(C)C)NC(=O)[C@H](CC(=O)O)NC(=O)[C@H](CO)NC(=O)[C@@H](NC(=O)[C@H](Cc1ccccc1)NC(=O)[C@@H](NC(=O)CNC(=O)[C@H](CCC(N)=O)NC(=O)C(C)(C)NC(=O)[C@@H](N)Cc1ccc(O)cc1)[C@@H](C)O)[C@@H](C)O)[C@@H](C)CC)C(=O)N[C@@H](CCC(=O)O)C(=O)N[C@@H](CCCCN)C(=O)N[C@@H](CCCNC(=N)N)C(=O)N[C@@H](C)C(=O)N[C@H](C(=O)NC(C)(C)C(=O)N[C@@H](CC(C)C)C(=O)N[C@@H](Cc1ccccc1)C(=O)N[C@H](C(=O)N[C@@H](CCC(=O)O)C(=O)N[C@@H](Cc1c[nH]c2ccccc12)C(=O)N[C@@H](CC(C)C)C(=O)N[C@@H](CCCCN)C(=O)N[C@@H](C)C(=O)NCC(=O)NCC(=O)N1CCC[C@H]1C(=O)N[C@@H](CO)C(=O)N[C@@H](CO)C(=O)NCC(=O)N[C@@H](C)C(=O)N1CCC[C@H]1C(=O)N1CCC[C@H]1C(=O)N1CCC[C@H]1C(=O)N[C@@H](CO)C(N)=O)[C@@H](C)CC)C(C)C
B6: exendin-4 peptide analogue SEQ ID NO: 28 (peptide)
peptide: Y[Aib]HGTFTSDLSKQK([γGlu-Palmitoyl])EKRAA[Aib]EFIEWLKNTGPSSGAPPPS-NH2
modifications: N-terminus assumed
SMILES: CCCCCCCCCCCCCCCC(=O)N[C@@H](CCC(=O)NCCCC[C@H](NC(=O)[C@H](CCC(N)=O)NC(=O)[C@H](CCCCN)NC(=O)[C@H](CO)NC(=O)[C@H](CC(C)C)NC(=O)[C@H](CC(=O)O)NC(=O)[C@H](CO)NC(=O)[C@@H](NC(=O)[C@H](Cc1ccccc1)NC(=O)[C@@H](NC(=O)CNC(=O)[C@H](Cc1c[nH]cn1)NC(=O)C(C)(C)NC(=O)[C@@H](N)Cc1ccc(O)cc1)[C@@H](C)O)[C@@H](C)O)C(=O)N[C@@H](CCC(=O)O)C(=O)N[C@@H](CCCCN)C(=O)N[C@@H](CCCNC(=N)N)C(=O)N[C@@H](C)C(=O)N[C@@H](C)C(=O)NC(C)(C)C(=O)N[C@@H](CCC(=O)O)C(=O)N[C@@H](Cc1ccccc1)C(=O)N[C@H](C(=O)N[C@@H](CCC(=O)O)C(=O)N[C@@H](Cc1c[nH]c2ccccc12)C(=O)N[C@@H](CC(C)C)C(=O)N[C@@H](CCCCN)C(=O)N[C@@H](CC(N)=O)C(=O)N[C@H](C(=O)NCC(=O)N1CCC[C@H]1C(=O)N[C@@H](CO)C(=O)N[C@@H](CO)C(=O)NCC(=O)N[C@@H](C)C(=O)N1CCC[C@H]1C(=O)N1CCC[C@H]1C(=O)N1CCC[C@H]1C(=O)N[C@@H](CO)C(N)=O)[C@@H](C)O)[C@@H](C)CC)C(=O)O

*1 amine or outer side, *2 acyl side, *3 side chain or, on linkers, in order; H or OH if unused. Where no end group is shown, it is not given here. Side-chain parts run from the residue outwards. [ ]: non-standard residue; d: D form. The star is where a group is joined. γGlu = O=C(O)[C@H](CCC(=O)[*:2])N[*:1]; Palmitoyl = CCCCCCCCCCCCCCCC(=O)*; Aib = CC(C)(N)C(=O)O

The target of one test is human GLP-1 receptor (human, UniProt P43220 24-463). Briefly: cell-based or functional assay.
On to B1, for which the “EC50 hGLP-1 R” value stood at 0.0147 nM.

On to B2, for which the “EC50 hGLP-1 R” value was 0.0192 nM.

Turning to B3, the “EC50 hGLP-1 R” value turned out to be 0.0092 nM.

With B4, the “EC50 hGLP-1 R” value is 0.0176 nM.

Consider B5, for which the “EC50 hGLP-1 R” value was found to be 0.037 nM.

Turning to B6, the “EC50 hGLP-1 R” value was found to be 0.0583 nM.

A further test concerns the target T1, human GIP receptor. Briefly: cell-based or functional assay.
For B1, the “EC50 hGIP R” value was 0.0826 nM.

As for B2, the “EC50 hGIP R” value is 0.0104 nM.

As to B3, the “EC50 hGIP R” value came out at 0.135 nM.

Consider B4, for which the “EC50 hGIP R” value amounted to 0.0053 nM.

Regarding B5, the “EC50 hGIP R” value is 0.176 nM.

B6: the “EC50 hGIP R” value was 0.0368 nM.

The next test deals with human glucagon receptor (human, UniProt P47871 26-477). Briefly: cell-based or functional assay.
Sequence of human glucagon receptor (P47871 26-477): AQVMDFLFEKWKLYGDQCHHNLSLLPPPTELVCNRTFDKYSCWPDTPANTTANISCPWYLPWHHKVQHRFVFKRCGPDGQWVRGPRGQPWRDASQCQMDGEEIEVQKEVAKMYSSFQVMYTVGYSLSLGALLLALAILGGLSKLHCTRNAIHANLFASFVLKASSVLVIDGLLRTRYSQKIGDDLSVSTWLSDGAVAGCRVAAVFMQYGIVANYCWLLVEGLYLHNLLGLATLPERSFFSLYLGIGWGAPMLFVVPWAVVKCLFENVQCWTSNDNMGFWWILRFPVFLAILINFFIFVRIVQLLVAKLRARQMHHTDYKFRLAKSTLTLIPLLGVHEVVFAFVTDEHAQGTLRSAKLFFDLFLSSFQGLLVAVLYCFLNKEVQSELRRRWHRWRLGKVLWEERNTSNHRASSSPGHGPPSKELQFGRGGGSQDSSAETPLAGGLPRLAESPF
With B1, the “EC50 hGLUC R” value is 0.0389 nM.

For the molecule B2, the “EC50 hGLUC R” value came out at 0.284 nM.

As for B3, the “EC50 hGLUC R” value worked out at 0.312 nM.

Regarding B4, the “EC50 hGLUC R” value stood at 0.3 nM.

As for B5, the “EC50 hGLUC R” value came out at 2.03 nM.

B6: the “EC50 hGLUC R” value was determined as 0.0048 nM.
